Usually Kd stands for the free concentration of one partner at which half of the binding sites on the other are occupied at equilibrium, for simple one-to-one binding. A low value points to a tighter complex.

Common to all, as to experiment: flow cytometry on cells
Assay [1] addresses T1, C-terminally truncated wild-type Ste2p (Saccharomyces cerevisiae, UniProt D6VTK4 1-303).
T1 sequence (looked up): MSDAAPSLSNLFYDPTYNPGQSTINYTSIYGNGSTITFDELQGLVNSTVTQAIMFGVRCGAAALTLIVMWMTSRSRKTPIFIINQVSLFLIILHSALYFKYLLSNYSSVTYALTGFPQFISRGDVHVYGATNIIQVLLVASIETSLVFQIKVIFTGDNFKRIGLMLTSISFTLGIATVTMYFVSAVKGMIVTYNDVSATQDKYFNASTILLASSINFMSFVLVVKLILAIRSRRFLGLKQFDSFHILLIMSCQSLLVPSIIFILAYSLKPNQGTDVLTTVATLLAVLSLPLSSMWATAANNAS

The target in assay [2] is T2, C-terminally truncated Ste2p F38Y (Saccharomyces cerevisiae, UniProt D6VTK4 1-303, F38Y).
T2 sequence (looked up): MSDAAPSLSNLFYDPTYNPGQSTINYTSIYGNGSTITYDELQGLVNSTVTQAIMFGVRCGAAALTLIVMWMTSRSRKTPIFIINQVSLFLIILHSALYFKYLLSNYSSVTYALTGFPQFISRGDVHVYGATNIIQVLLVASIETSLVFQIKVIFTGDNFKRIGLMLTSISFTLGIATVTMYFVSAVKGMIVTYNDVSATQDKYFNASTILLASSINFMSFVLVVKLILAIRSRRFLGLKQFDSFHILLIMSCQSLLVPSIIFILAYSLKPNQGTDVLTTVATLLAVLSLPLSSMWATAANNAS

For assay [3], the target named is T3, C-terminally truncated Ste2p H94Y (Saccharomyces cerevisiae, UniProt D6VTK4 1-303, H94Y).
T3 sequence (looked up): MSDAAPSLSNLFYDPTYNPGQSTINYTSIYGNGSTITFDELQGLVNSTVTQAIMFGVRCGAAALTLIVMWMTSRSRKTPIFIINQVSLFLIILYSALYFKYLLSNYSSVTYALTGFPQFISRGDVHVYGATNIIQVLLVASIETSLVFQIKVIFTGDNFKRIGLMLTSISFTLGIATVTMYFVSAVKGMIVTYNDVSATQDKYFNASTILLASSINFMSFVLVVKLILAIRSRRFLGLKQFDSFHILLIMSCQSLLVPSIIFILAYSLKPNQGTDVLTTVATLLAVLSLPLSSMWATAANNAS

In assay [4] the target is T4, C-terminally truncated Ste2p S95Y (Saccharomyces cerevisiae, UniProt D6VTK4 1-303, S95Y).
T4 sequence (looked up): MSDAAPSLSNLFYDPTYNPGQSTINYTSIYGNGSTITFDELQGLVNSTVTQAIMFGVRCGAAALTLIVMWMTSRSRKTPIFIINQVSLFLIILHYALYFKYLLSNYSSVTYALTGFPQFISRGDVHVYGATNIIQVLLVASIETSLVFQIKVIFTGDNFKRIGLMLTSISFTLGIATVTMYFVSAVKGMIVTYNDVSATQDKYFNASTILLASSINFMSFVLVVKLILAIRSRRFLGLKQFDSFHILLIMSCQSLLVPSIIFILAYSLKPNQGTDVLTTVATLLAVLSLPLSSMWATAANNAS

The target in assay [5] is T5, C-terminally truncated Ste2p S104Y (Saccharomyces cerevisiae, UniProt D6VTK4 1-303, S104Y).
T5 sequence (looked up): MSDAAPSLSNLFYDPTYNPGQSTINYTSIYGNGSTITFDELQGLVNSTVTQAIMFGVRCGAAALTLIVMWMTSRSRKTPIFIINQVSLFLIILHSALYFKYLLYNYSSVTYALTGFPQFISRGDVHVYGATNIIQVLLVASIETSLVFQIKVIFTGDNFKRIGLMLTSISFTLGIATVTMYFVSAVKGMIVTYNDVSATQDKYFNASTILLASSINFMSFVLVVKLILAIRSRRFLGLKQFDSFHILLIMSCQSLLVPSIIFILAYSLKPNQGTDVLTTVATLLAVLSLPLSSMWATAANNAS

For the next assay, the target named is T6, full-length Ste2p L211R (Saccharomyces cerevisiae, UniProt D6VTK4 1-431, L211R).
T6 sequence (looked up): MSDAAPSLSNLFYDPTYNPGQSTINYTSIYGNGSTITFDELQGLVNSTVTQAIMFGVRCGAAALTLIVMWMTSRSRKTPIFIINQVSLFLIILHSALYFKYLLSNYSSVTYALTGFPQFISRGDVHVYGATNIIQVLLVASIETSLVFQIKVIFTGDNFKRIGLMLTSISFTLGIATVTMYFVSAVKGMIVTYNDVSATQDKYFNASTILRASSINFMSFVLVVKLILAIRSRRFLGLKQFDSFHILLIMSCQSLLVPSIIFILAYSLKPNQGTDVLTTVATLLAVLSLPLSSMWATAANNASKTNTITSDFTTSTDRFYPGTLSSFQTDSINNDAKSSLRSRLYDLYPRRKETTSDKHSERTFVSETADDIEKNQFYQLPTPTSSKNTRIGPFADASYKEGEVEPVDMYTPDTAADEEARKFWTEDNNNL

B1: [K^7(NBD),Nle^12] α-factor (peptide)
chain: WHWLQLKPGQPMY
modifications: NBD (7-nitrobenz-2-oxa-1,3-diazol-4-yl) conjugated to the lysine at position 7; norleucine at position 12 in place of methionine
With B1, the dissociation constant Kd in assay [1] is 19 ± 3.8 nM; in assay [2], 59 ± 11 nM; in assay [3], 47 ± 8.1 nM; in assay [4], 8.1 ± 7.5 nM; in assay [5] it was 12 ± 3.4 nM; with full-length Ste2p L211R it was 0.8 ± 0.1 nM.

(Values after publication PMC4405178 (Biochemistry, 2015).)
